Test [1] addresses hen-egg lysozyme (HEL) from chicken egg white (chicken) (UniProt P00698). Briefly: yeast display immunoprecipitation with 5x10^7 yeast from RBE4 lysate holding 34 nM HEL, gel densitometry.
Test [2] has the same target. Briefly: flow cytometry titration of biotinylated HEL on yeast-displayed D1.3 scFv; PBS with n-octyl-beta-D-glucopyranoside.
Test [3] shares this target. Briefly: flow cytometry titration of biotinylated HEL on yeast-displayed D1.3 scFv; PBS with BSA.
Test [4] shares this target. Briefly: flow cytometry titration of biotinylated HEL on yeast-displayed D1.3 scFv; PBS with Triton X-100.

This is an account of results in US20100209425A1.

Chain of UniProt P00698 (P00698 19-147): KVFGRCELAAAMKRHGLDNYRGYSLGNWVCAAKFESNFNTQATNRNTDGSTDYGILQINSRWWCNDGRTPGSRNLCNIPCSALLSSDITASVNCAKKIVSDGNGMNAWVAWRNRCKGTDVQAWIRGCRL

In turn, “anti-hen egg lysozyme D1.3 scFv displayed on yeast” had a percent of the theoretical immunoprecipitation yield in test [1] of 70%. Further, the Kd in test [2] turned out to be 2.61 nM; in test [3], 1.07 nM; in test [4], 0.488 nM.
